± gives the standard error. This sample holds only a part of the variants without activity.
B1: glmS ribozyme (parent)
chain: AUAAAAGCGCCAGAACUACAGAAAUGUAGUUGACGAGGAGGAGGUUUAUCGAAUUUUCGGCGGAUGCCUCCAAA

What was measured:
Details in all cases: with glucosamine-6-phosphate
glucosamine-6-phosphate [1] = variants of: B1; test: self-cleavage kobs at 40 uM GlcN6P; higher = faster cleavage; RNA array
Summary of the method: (§1)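 Barcoded ribozyme variants on sequenced MiSeq chips were transcribed in situ by E. coli RNA polymerase and followed at 37 °C through a hybridised Cy3 probe. Glucosamine-6-phosphate at 40 μM to 10 mM in HEPES/KCl/Mg(OAc)2 buffer was flowed in, and tiles were imaged over ~14 h. Signals were normalised to baseline and to non-cleaving reference variants, and per-tile medians were fit to one- or two-exponential decays to give kobs. Weighted Michaelis–Menten fits across concentrations gave kcat and KM.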

glucosamine-6-phosphate [2] = variants of: B1; test: self-cleavage kobs at 640 uM GlcN6P; higher = faster cleavage; RNA array
Summary of the method: as §1

glucosamine-6-phosphate [3] = variants of: B1; test: self-cleavage kobs at 10000 uM GlcN6P; higher = faster cleavage; RNA array
Summary of the method: as §1

glucosamine-6-phosphate [4] = variants of: B1; test: self-cleavage kobs at 160 uM GlcN6P; higher = faster cleavage; RNA array
Summary of the method: as §1

glucosamine-6-phosphate [5] = variants of: B1; test: self-cleavage kobs at 2500 uM GlcN6P; higher = faster cleavage; RNA array
Summary of the method: as §1

| Variant | self-cleavage kobs at 40 uM GlcN6P (glucosamine-6-phosphate [1]) | self-cleavage kobs at 640 uM GlcN6P (glucosamine-6-phosphate [2]) | self-cleavage kobs at 10000 uM GlcN6P (glucosamine-6-phosphate [3]) | self-cleavage kobs at 160 uM GlcN6P (glucosamine-6-phosphate [4]) | self-cleavage kobs at 2500 uM GlcN6P (glucosamine-6-phosphate [5]) |
| --- | --- | --- | --- | --- | --- |
| A14U G37U | < 1e-05 s⁻¹ | < 1e-05 s⁻¹ | < 1e-05 s⁻¹ | – | – |
| C10A C70G | 2.53e-05 ± 1e-05 s⁻¹ | 0.000116 ± 1.8e-05 s⁻¹ | – | – | – |
| C8A A53C G59A C68A | < 1e-05 s⁻¹ | – | < 1e-05 s⁻¹ | – | – |
| C16G U30G C61G | < 1e-05 s⁻¹ | – | < 1e-05 s⁻¹ | – | – |
| G29C U30C A33C A42G U55A U56A | < 1e-05 s⁻¹ | – | < 1e-05 s⁻¹ | – | – |
| A39G G60U | < 1e-05 s⁻¹ | < 1e-05 s⁻¹ | – | < 1e-05 s⁻¹ | – |
| A42U G62U | < 1e-05 s⁻¹ | < 1e-05 s⁻¹ | – | < 1e-05 s⁻¹ | < 1e-05 s⁻¹ |
| A6G U55G G66C C70A | 0.000223 ± 8.2e-05 s⁻¹ | 0.000697 ± 0.00025 s⁻¹ | 0.000165 ± 5.3e-05 s⁻¹ | – | 0.000623 ± 0.0002 s⁻¹ |
| G13U U31C A33C A48C A52C U56G | < 1e-05 s⁻¹ | – | – | – | – |
| G44U C50G | < 1e-05 s⁻¹ | – | < 1e-05 s⁻¹ | – | – |
| G7U G51A | < 1e-05 s⁻¹ | – | < 1e-05 s⁻¹ | < 1e-05 s⁻¹ | < 1e-05 s⁻¹ |
| C11G G38U | < 1e-05 s⁻¹ | < 1e-05 s⁻¹ | < 1e-05 s⁻¹ | < 1e-05 s⁻¹ | – |
| A36C A39G G66A | < 1e-05 s⁻¹ | – | < 1e-05 s⁻¹ | – | – |
| G44A A48U | < 1e-05 s⁻¹ | < 1e-05 s⁻¹ | – | < 1e-05 s⁻¹ | – |
| U30A G66C C70G | < 1e-05 s⁻¹ | – | – | – | – |
| C16G G37A C68U | < 1e-05 s⁻¹ | – | – | – | – |
| A6G G60A | < 1e-05 s⁻¹ | < 1e-05 s⁻¹ | < 1e-05 s⁻¹ | < 1e-05 s⁻¹ | < 1e-05 s⁻¹ |
| C16G G44U | < 1e-05 s⁻¹ | – | 2.26e-05 ± 1e-05 s⁻¹ | < 1e-05 s⁻¹ | – |
| A52U G60A | < 1e-05 s⁻¹ | < 1e-05 s⁻¹ | < 1e-05 s⁻¹ | < 1e-05 s⁻¹ | – |
| G40C G44C | < 1e-05 s⁻¹ | – | < 1e-05 s⁻¹ | – | – |
| C16U U30G G32A U57A C61U | < 1e-05 s⁻¹ | – | – | – | < 1e-05 s⁻¹ |
| U31G C61G U65C | < 1e-05 s⁻¹ | – | – | – | – |
| A6G U31C U55G | < 1e-05 s⁻¹ | – | 5.16e-05 ± 1.9e-05 s⁻¹ | – | 4.23e-05 ± 1.7e-05 s⁻¹ |
| A39U U55A U56C | 2.36e-05 ± 8.3e-06 s⁻¹ | – | 0.00213 ± 0.00023 s⁻¹ | – | – |

| Variant | self-cleavage kobs at 40 uM GlcN6P (glucosamine-6-phosphate [1]) | self-cleavage kobs at 640 uM GlcN6P (glucosamine-6-phosphate [2]) | self-cleavage kobs at 10000 uM GlcN6P (glucosamine-6-phosphate [3]) | self-cleavage kobs at 160 uM GlcN6P (glucosamine-6-phosphate [4]) | self-cleavage kobs at 2500 uM GlcN6P (glucosamine-6-phosphate [5]) |
| --- | --- | --- | --- | --- | --- |
| A6U G7U A15U U30G G40A | < 1e-05 s⁻¹ | – | < 1e-05 s⁻¹ | – | – |
| C11A A42G U56A | < 1e-05 s⁻¹ | – | 7.2e-05 ± 1.5e-05 s⁻¹ | – | 2.82e-05 ± 1.3e-05 s⁻¹ |
| G60C C67A C71U | < 1e-05 s⁻¹ | – | – | – | – |
| C11A U49C | < 1e-05 s⁻¹ | – | < 1e-05 s⁻¹ | < 1e-05 s⁻¹ | < 1e-05 s⁻¹ |
| G7C A15U G59C | < 1e-05 s⁻¹ | < 1e-05 s⁻¹ | < 1e-05 s⁻¹ | < 1e-05 s⁻¹ | < 1e-05 s⁻¹ |
| C8U C11U A12C A48G G62A C67U | < 1e-05 s⁻¹ | – | < 1e-05 s⁻¹ | – | < 1e-05 s⁻¹ |
| G35U A48C | < 1e-05 s⁻¹ | – | < 1e-05 s⁻¹ | – | < 1e-05 s⁻¹ |
| C11U A15C U46A | < 1e-05 s⁻¹ | < 1e-05 s⁻¹ | – | < 1e-05 s⁻¹ | – |
| G43U C50U U55G | < 1e-05 s⁻¹ | < 1e-05 s⁻¹ | – | – | < 1e-05 s⁻¹ |
| U31G A39G | 0.0004 ± 6e-05 s⁻¹ | 0.00522 ± 0.0013 s⁻¹ | – | 0.00122 ± 0.00027 s⁻¹ | 0.0142 ± 0.0046 s⁻¹ |
| A12G A15C G35U C71U | < 1e-05 s⁻¹ | – | – | < 1e-05 s⁻¹ | – |
| G43C U47A | < 1e-05 s⁻¹ | < 1e-05 s⁻¹ | – | – | < 1e-05 s⁻¹ |
| G7A G29C U57G C70G | 0.000158 ± 7.6e-05 s⁻¹ | – | 0.000678 ± 0.00017 s⁻¹ | – | – |
| A48G C50G C61A | 9.98e-05 ± 2.4e-05 s⁻¹ | – | 6.27e-05 ± 1.9e-05 s⁻¹ | – | – |
| G7A U31A | < 1e-05 s⁻¹ | < 1e-05 s⁻¹ | – | – | – |
| A33G G41U | < 1e-05 s⁻¹ | < 1e-05 s⁻¹ | < 1e-05 s⁻¹ | < 1e-05 s⁻¹ | – |
| G13C G60A U65G G66C C71U | < 1e-05 s⁻¹ | – | < 1e-05 s⁻¹ | – | – |
| A6C G13U C58A A64C | < 1e-05 s⁻¹ | < 1e-05 s⁻¹ | – | < 1e-05 s⁻¹ | < 1e-05 s⁻¹ |
| A39G U45C U57C C70U C71U | < 1e-05 s⁻¹ | – | – | – | – |
| C10G A14C | < 1e-05 s⁻¹ | – | < 1e-05 s⁻¹ | – | – |
| G32A U57G | < 1e-05 s⁻¹ | – | – | – | – |
| U31C G63C | < 1e-05 s⁻¹ | < 1e-05 s⁻¹ | < 1e-05 s⁻¹ | < 1e-05 s⁻¹ | – |
| G40U G63C | < 1e-05 s⁻¹ | < 1e-05 s⁻¹ | < 1e-05 s⁻¹ | < 1e-05 s⁻¹ | < 1e-05 s⁻¹ |
| G7A A39G C58G | < 1e-05 s⁻¹ | – | – | – | – |

Source: the supplement of paper PMC7125110
